# Changes are numbered by the printed parent chain. Names and notes keep the numbering of the source.
# B1: Streptomyces coelicolor SsgB, wild type, His6-tagged (natural protein, UniProt Q9L268 1-137, looked up)
# chain: MNTTVSCELHLRLVVSSESSLPVPAGLRYDTADPYAVHATFHTGAEETVEWVFARDLLAEGLHRPTGTGDVRVWPSRSHGQGVVCIALSSPEGEALLEAPARALESFLKRTDAAVPPGTEHRHFDLDQELSHILAES
# notes: SsgB of Streptomyces coelicolor, entire coding region, 137 aa native polypeptide; expressed from pET28a as a 157 aa fusion protein; Trimer in the crystal, mainly monomer by SEC; The last 13 residues are not modelled in the structure; also called ScSsgB; wild-type SsgB; source: E. coli Rosetta 2 (DE3) pLysS, purified
# B2: SsgB E120A, His6-tagged (natural protein, Streptomyces coelicolor, UniProt Q9L268 1-137, looked up)
# chain: B1 chain with E120A
# notes: SsgB of Streptomyces coelicolor, entire coding region (137 aa), point mutant E120A, expressed in the same way as wild type; also called SsgB variant E120A; source: E. coli Rosetta 2 (DE3) pLysS, purified
# B3: SsgB-E120G, His6-tagged (natural protein, Streptomyces coelicolor, UniProt Q9L268 1-137, looked up)
# chain: B1 chain with E120G
# notes: SsgB of Streptomyces coelicolor, entire coding region (137 aa), point mutant E120G, expressed in the same way as wild type; also called SsgB variant E120G; source: E. coli Rosetta 2 (DE3) pLysS, purified
# B4: Streptomyces coelicolor FtsZ, C-terminal His-tag fusion (natural protein, UniProt P45500 1-399, looked up)
# chain: MAAPQNYLAVIKVIGVGGGGVNAINRMIEVGLKGVEFIAINTDAQALLMSDADVKLDVGRELTRGLGAGANPAVGRKAAEDHREEIEEVLKGADMVFVTAGEGGGTGTGGAPVVANIARSLGALTIGVVTRPFTFEGRRRANQAEDGIAELREEVDTLIVIPNDRLLSISDRQVSVLDAFKSADQVLLSGVQGITDLITTPGLINLDFADVKSVMSEAGSALMGIGSARGDDRAVAAAEMAISSPLLEASIDGARGVLLSISGGSDLGLFEINEAAQLVSEAAHPEANIIFGAVIDDALGDEVRVTVIAAGFDGGQPPSKRDNVLGSSSAKREEPTPARPSESRPSFGSLGSVKPKEEPEPAPVPEPVADLPVSPPPVPPSRTYSDSAAEELDVPDFLK
# notes: FtsZ of Streptomyces coelicolor, codon-optimised ftsZ cloned into pET28a; Forms polymers with GTP; source: E. coli Rosetta 2 (DE3) pLysS, purified
# Tests used:
# [1] = target: Streptomyces coelicolor SsgB, wild type, His6-tagged (Streptomyces coelicolor) (UniProt Q9L268); assay: crystal structure; tetragonal crystals, sitting-drop vapour diffusion at 18°C; 0.2 M sodium chloride, 0.1 M sodium/potassium phosphate pH 6.2, 50% PEG200; 2.1 Å; eight molecules per asymmetric unit
# [2] = target: B4; assay: co-sedimentation; co-pelleting assay: purified FtsZ with or without equimolar SsgB or its mutants, 15 µM final; pre-spun 50 k r.p.m. 30 min; 2 mM MgCl2 and GTP added, 10 min at 30°C; centrifuged 65 k r.p.m. at 20°C for 30 min; supernatants and pellets on SDS-PAGE; details: both partners purified
# [3] = target: the molecule itself; assay: as above
stoichiometry N [1],binding result [2],Binder,binding result [3]
3,binds,B1,
,binds,B2,
,binds,B3,
,,B4,binds

# Reference: paper PMC8061694, “Ectopic positioning of the cell division plane is associated with single amino acid substitutions in the FtsZ-recruiting SsgB in Streptomyces” (Open Biology, 2021)
